Laboratory results from the DeepSol protein solubility set.

assay: soluble on expression in E. coli; label from the status in PepcDB or PDB records

Row | Sequence | soluble on expression in E. coli
1 | MSLPFPTIPPIAGVEIATGRAGFYKHEREDLLLMRFAEGTSAAGVFTRHGVGSAPVDWCKRQLAATGGADVRALVVNAGCANSFTGKPGADAVRRVATAVGKRFDCRQRDVMMASTGVIGVILDDSKITARLPEVESRLKADAWAEAGRAIMTTDTFPKGAYATAVIDGHEVKIAGIAKGSGMIAPDMATMLAFVATDAAIAPAALQTLVSLYTRTTFNCVTVDGDRSTNDTLLLFATGQSGAPKIHRAGDKRLADFREKLEGVLLDLALQLVKDGEGATKFVKITVNGAESPASARKIARTIAESPLVKTAFAGEDANWGRIVMAVGRADEPVAREKISVKFGDLYAARDGLISAEYDEAKMSAYVKNQAFEVSVDVGVGRGSATVWTCDLTKQYVAINGDYRSEGHHHHHH | not soluble
2 | MGSDKIHHHHHHMSFKSSIAKMAGKSSYWFLHTFRSGGSSLPGKITTKIDPTILKDLGKDYDVIVITGTNGKTLTTALTVKVLRQKFDHVLTNPTGSNMEQGIVTTFLTDHKSKNGKNIAILEVDEANVIKVTQYIKPLAFVFTNIFRDQMDRYGEIYTTYRKILDGVKLAPEATIIANGDMPIFNSVDLPNPVVYYGFNNQPDGEMKADPNTDGVVCPRCEHIIHYKFISYSNQGKYYCPNCGWERPELTYQLTQITKLTPNLSKFFIDASNFTLHIGGLYNVYNALAAYSVGKFMGVPTSSIQKALNDPDERVFGRQEQINVDGKEITIVLVKNPVGLNQVIDMVGTESEPFSFVGLLNANYADGIDTSWIWDGNFEKLTQMPIQQYMTGGERYKDITFRLKVAGIEDNQLWTYDNLKDAVSNIKNLPTKRVYVFATYTAMLQLRKQLATEGYIKEGI | not soluble
3 | MSATSATNFAVQTHPVKAPDEEYFFEGAEKLLELWFCSSTQNETRSLRIIPREEIDAMLDIARCKILHSKHNESIDSYVLSESSLFISDNRVILKTCGTTRLLAALPVIMQLAGAYAGLDQVQSVYYSRKNFLRPDLQPSLHKNFDAEVEYLDSFFVDGHAYCLGSLKQDRWYLYTFHREVEFPAHKQPDHTLEILMSDLDEEVLHKFTKDYAVDGNDCFMRAGIDKIIPAGADVHDELFDPCGYSMNAYMNDTDQYATIHVTPEKAFSFASFETNQDLVCLYSQTRKVLQCFRPNKILMTVFANDISEKGKDAQQQLWDRELPGYRRTNVQFVRLETETLVYAHFVRKASTGQDSSSSDEDDGERSD | not soluble
4 | MTKPRYNDVLFDDDDSVPSESVTRKSQRRKATSPGESRESSKDRLLILPSMGESYTEYVDSYLNLELLERGERETPIFLESLTRQLTQKIYELIKTKSLTADTLQQISDKYDGVVAENKLLFLQRQYYVDDEGNVRDGRNNDKIYCEPKHVYDMVMATHLMNKHLRGKTLHSFLFSHFANISHAIIDWVQQFCSKCNKKGKIKPLKEYKR | not soluble
5 | MSLVTIKDVALKAGVSPSTVSRVIKGNKRISEATISKVKKVMEELNYFPNTAARTLITNQTYKIGLVLKGSEEPIRLNPFYINVLLGISETCNQHGYGTQTTVSNNMNDLMDEVYKMIKQRMVDAFILLYSKENDPIKQMLIDESMPFIVIGKPTSDIDHQFTHIDNDNILASENLTRHVIEQGVDELIFITEKGNFEVSKDRIQGFETVASQFNLDYQIIETSNEREVILNYMQNLHTRLKDPNIKQAIISLDAMLHLAILSVLYELNIEIPKDVMTATFNDSYLTEIASPPQTCIDIKPRMLGQQAGSAILNILKNKAQDVIELVIIDTELKIRKSTQREGHHHHHH | soluble
6 | MQNHVISLASAAERRAHIAATFGVRGIPFQFFDALMPSEELNRMMAELVPGLAKQHLLSEVEKACFMSHAVLWKQALDEGLPYVAVFEDDVLLGKDAEKFLAEDTWLEERFDKDSAFIVRLETMFAKVIVRPDKVLNYENRSFPLLESEHWGTAGYIISREAMRFFLERFAVLPAEWIKAVDWMMFTYFFDKEGMPVYQVNPALCTQELHYAKFLSKNSMLGSDLEKDREQERRHRRSLKVMFDLKRALGKFGREKKKRMERQRQAELEKAYGRRVISFK | not soluble
7 | MASDTPGFYMDKLNKYRQMHGVAITYKELSTSGPPHDRRFTFQVLIDEKEFPEAKGRSKQEARNAAAKLAVDILDNENKVDCHT | soluble
8 | MAFLSTSVLIKCCILLLAGGLAESLTLGLAPALSTHSSGVSTQSVDLSQIKRGDEIQAHCLTPAETEVTECAGILKDVLSKNLHELQGLCNVKNKMGVPWVSVEELGQEIITGRLPFPSVGGTPVNDLVRVLVVAESNTPEETPEEEFYAYVELQTELYTFGLSDDNVVFTSDYMTVWMIDIPKSYVDVGMLTRATFLEQWPGAKVTVMIPYSSTFTWCGELGAISEESAPQPSLSARSPVCKNSARYSTSKFCEVDGCTAETGMEKMSLLTPFGGPPQQAKMNTCPCYYKYSVSPLPAMDHLILADLAGLDSLTSPVYVMAAYFDSTHENPVRPSSKLYHCALQMTSHDGVWTSTSSEQCPIRLVEGQSQNVLQVRVAPTSMPNLVGVSLMLEGQQYRLEYFGDH | soluble
9 | MKLSTSLEMPFRESTDPICSVCNFSSLIAPHFGGLVCSACASFFRRTVALNIHYLCKKDNQCKGMRKNCRACRFESCVKIAGMKRSLVKERKNLNNIPLYILNRRNETGNQGVVRAFVSSNQNRLENRLSLSPLTELPINDEMDVSKILKTTPSSLLKYYVEQVSHGKQFYMNTLNIRTKEELFEIVSYQSKVAAETCRTCPGVDLLDNRDILILRKYFQFSNIWIESTWKYWFSNDFSNDTEKFDIKLMEFIGQVKSTLLISLSRLKFNIFEFTAFKAICIWKLVYHETSRAMKIVAQEHYEGVTKALISYYQTYTLLDSMEIAIRVGEITLLVSSVFQMYHDMAKLYLHMGLPF | not soluble
10 | MGHHHHHHSHMKAFSPVRSVRKNSLSDHSLGISRSKTPVDDPMSLLYNMNDCYSKLKELVPSIPQNKKVSKMEILQHVIDYILDLQIALDSHPTIVSLHHQRPGQNQASRTPLTTLNTDISILSLQASEFPSELMSNDSKALCG | soluble
11 | DADAEFDIVIGNIEDIIMEDEFQHLQQSFMEKYYLEFDDSEENKLSYTPIFNEYIEILEKHLEQQLVERIPGFNMDAFTHSLKQHKDEVSGDILDMLLTFTDFMAFKEMFTDYRAEKEGRG | soluble
12 | GAMDPAVMKIEYYSQVLDMEWGVNVLYPDANRVEEPECEDIPVLYLLHGMSGNHNSWLKRTNVERLLRGTNLIVVMPNTSNGWYTDTQYGFDYYTALAEELPQVLKRFFPNMTSKREKTFIAGLSMGGYGCFKLALTTNRFSHAASFSGALSFQNFSPESQNLGSPAYWRGVFGEIRDWTTSPYSLESLAKKSDKKTKLWAWCGEQDFLYEANNLAVKNLKKLGFDVTYSHSAGTHEWYYWEKQLEVFLTTLPIDFKLEERLT | soluble
13 | MFLRYMRRRGSGEDHEEEPRGVTVIATKVAENSKNPRRYSLVHQASCETQHHKGIRRQNTIQHRKQLTDQMRCQKILQQLNDEGIEVIFTANDVTPIEFSIILTSTDPTLSNFVSDILQNMSSAKVQICHVETRGNEASHDVLLACKATKNQLIHSAELLTQNHVALTKFSIFAKKLSDEKNQSQIWFPRHISELDQCSKCITKYEPTTDPRHPGHGDVAYIARRKFLNDQALEFKFGDEIGYVDYTEEEHATWKAVYEKLGDLHLSHTCAVYRQNLKILQEEKVLTADRIPQIRDVNKFLQKKTGFELRPCSGLLSARDFLASLAFRVFQTTTYLRHHKSPHHSPEPDLIHELLGHVPMFSDPLLAQMSQDIGLMSLGASDEHIEKLSTVYWFIVEFGLCKEDGKLKAIGAGLLSAYGELMHACSDAPEHKDFDPAVTAVQKYEDDDYQPLYFVADSIHDALAKLRKYASSMDRPFSVVYDPFTKSIEAIESSADLEKAFSRLSNDLSAITHAADRMKISITM | not soluble
14 | MGSDKIHHHHHHMALVALPGGGAVDPAFWSVQAAEDFEQEIVDQYALAMAAAGLSDSHIRNTRSTIIEFARSVTGPLWAATCQDADRFLAEQRRLGRSVSTRAGKAGTLALFYEFMISRYQGRIHRLTGVLVEQPIDEFNRQAGASLGKVRVPPSDAEIDAFFTCWRHSIPQARKYLPAARDYFAASLWRRLGLRITETVMLDIRDWRPDLGGFGKLHVRYGKGAHGRGPKPRLVPAINGAAELIDWWLGDVRHRYGEDWADPDAPLLPSERFDRELGRCGRVGGNALRRSLGLQVDQWLPAWSGRMTPHVLRHYCASSLYGAGMDIKALQELLGHQWLSTTSGYIHVRSEHVEQAWKNANERVESRFATTQKEG | not soluble
15 | MNSRSTAEITDYLNEKITKKDALELFSLPIHAVGRIADEIRKVKCGDLVTFVNDTNINYTNICLSKCRFCAFYAREKGYVLSHEEILRKVGYAVKMGATQIMLQGGMNPDLGLEWFEELFRKIKARFSSVHIHSLSPPEIVFLAKLERSSIREVLDRLKAAGLDSLPGGGAEILVDSVRRKISPNKCSSDEWLRVMETAHSLNMPTTATMMFGHVESDGDIVEHLIKIRELQEKTGGFTAFIPWTFQPGNTELYAEIKRPVSPLRYLQVLAISRIVLNNFRNIQASWLTQGFEIATLSLFFGANDFGGTMLEENVVRATGKDFRPAKIEEIVKAVKAVGRPVALRDTYYNILEWF | not soluble
16 | MDSHQQPYASQAQADTTLFPEQTRESLQALAVKLQPLIEGHRLDNLVDLLSLLSDIVDLLDPAMVDRLAQLFEQVTSVGWSVGNAVRVAKAELLREQPPSLKDLLRLLRDADSRRGLALVLGSLRSLGRQLAAEQEVAHGA | not soluble
17 | MPFIECHIATGLSVARKQQLIRDVIDVTNKSIGSDPKIINVLLVEHAEANMSISGRIHGEAASTERTPAVS | soluble
18 | MSSQMKAFLNELQGNMEVVGEFFDNPEKVIRKFGIVGREKEALLIRDLNDMDDYALSIQNSVASPSGAHSSTCHFVRQDLQSA | not soluble
19 | MGSDKIHHHHHHMKKWLVLGVAAVAFFSYENTPMEQAEADYPKSGGTLIDRYTSEYPGYDWEVRRTATEEFVALTKDGKDYGKYRSKNGVTTQGAVLNKDTETTLAKKGWKAVKSYRKGNTNYLLNLDHAAVYEKKDRYVTYFFDQHDGNKVKATLAIPKEVEAKKSGFYGKASSALRTTDEKLMLRLMNWDRADYNLGALTPYSPLKPVTRAHSENMAKNNFFSHTDPERRDPFDRMKENGIRFSAAGENLSMGYPNVFAAHWGLMNSKGHRDNIMNKTFEQADTGVAFRDNAPYFTINFRTP | not soluble
20 | MPLVVNVLSTPLNAQPTRTAGFTLPEMMLALSFGSLIALSTAQVLPKLSQQISVLQQHYRLELVMNQAMGAMEKDLRRAGFCHGKCQGEAITIEHYLGETAHSCLIVAYDLNCNGRWEGAKHQESEYFGYRLRNKALESQRGELNCHGRGWEKLFDPRDVTVTHFSVTPLSGQLFKLRLVGHKTGNPAIHHQVTYLIRGNNV | not soluble
